Test results: patent publication US20210130436A1

Columns and labels:
Experiment in all cases: cell-based or functional assay
[1] = target: PD-L1 on K562/OKT3/PD-L1 artificial antigen presenting cells (UniProt Q9NZQ7)
[2] = target: CD28 on Jurkat/IL2 reporter cells (human) (UniProt P10747)
PD-L1 (human) = PD-L1 (human) (UniProt Q9NZQ7)
CD28 (human) = CD28 (human) (UniProt P10747)

Sequence of PD-L1 on K562/OKT3/PD-L1 artificial antigen presenting cells (Q9NZQ7 19-290): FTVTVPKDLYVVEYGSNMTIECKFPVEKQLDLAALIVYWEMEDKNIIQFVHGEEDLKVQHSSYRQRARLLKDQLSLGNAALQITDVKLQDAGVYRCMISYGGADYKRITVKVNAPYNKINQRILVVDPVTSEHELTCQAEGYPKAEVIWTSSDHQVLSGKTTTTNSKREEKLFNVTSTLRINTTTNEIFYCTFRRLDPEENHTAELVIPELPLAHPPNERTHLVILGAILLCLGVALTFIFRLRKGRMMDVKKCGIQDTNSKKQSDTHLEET
Sequence of PD-L1 (human) (Q9NZQ7 19-290): as above

Row | Substance | Fold Increase over WT CD80-IgV-Fc (RLU, Jurkat/IL2 + K562/OKT3/PD-L1 reporter assay, 50 nM) [1] | Relative Luciferase Units (RLU), Jurkat/IL2 + K562/OKT3/PD-L1 reporter assay, CD80-Fc Conc 50 nM [1] | Fold Increase over WT CD80-IgV-Fc (RLU, Jurkat/IL2 + K562/OKT3/PD-L1 reporter assay, 50 nM) [2] | Relative Luciferase Units (RLU), Jurkat/IL2 + K562/OKT3/PD-L1 reporter assay, CD80-Fc Conc 50 nM [2] | further results
1 | CD80 A26E/E35D/M47L/A71G IgV-Fc (inert) (Fc fusion) | 8.5 fold | 1750 RLU | 8.5 fold | 1750 RLU | 
2 | CD80 E35D/D46E/M47V/A71D IgV-Fc (inert) (Fc fusion) | 3.3 fold | 683 RLU | 3.3 fold | 683 RLU | 
3 | CD80 E35D/M38T/D46E/M47V/N48S IgV-Fc (inert) (Fc fusion) | 6.4 fold | 1320 RLU | 6.4 fold | 1320 RLU | 
4 | CD80 E35D/M47L/A71G/L85M/F92Y IgV-Fc (inert) (Fc fusion) | 6.4 fold | 1320 RLU | 6.4 fold | 1320 RLU | 
5 | CD80 E35D/M47V/A71G/E88D IgV-Fc (inert) (Fc fusion) | 5.9 fold | 1220 RLU | 5.9 fold | 1220 RLU | 
6 | CD80 E35D/M47V/N48T/L85Q IgV-Fc (inert) (Fc fusion) | 4.4 fold | 897 RLU | 4.4 fold | 897 RLU | 
7 | CD80 E35D/T41S/M43I/A71G/D90G IgV-Fc (inert) (Fc fusion) | 5.4 fold | 1120 RLU | 5.4 fold | 1120 RLU | 
8 | CD80 E35D/T41S/M43I/M47L/A71G IgV-Fc (inert) (Fc fusion) | 7.5 fold | 1540 RLU | 7.5 fold | 1540 RLU | 
9 | CD80 E35D/T41S/M43V/M47I/L70M/A71G IgV-Fc (inert) (Fc fusion) | 8.1 fold | 1670 RLU | 8.1 fold | 1670 RLU | 
10 | CD80 H18Y/A26E/E35D/M47L/L85Q/D90G IgV-Fc (inert) (Fc fusion) | 7.3 fold | 1510 RLU | 7.3 fold | 1510 RLU | 
11 | CD80 I30V/E35D/M47V/A71G/A91V IgV-Fc (inert) (Fc fusion) | 7.3 fold | 1500 RLU | 7.3 fold | 1500 RLU | 
12 | CD80 Q27H/E35D/D46V/M47L/A71G IgV-Fc (inert) (Fc fusion) | 4.7 fold | 978 RLU | 4.7 fold | 978 RLU | 
13 | CD80 V22D/E35D/M47L/L70M/L97Q IgV-Fc (inert) (Fc fusion) | 7.5 fold | 1540 RLU | 7.5 fold | 1540 RLU | 
14 | variant CD80 IgV-Fc (inert) E35D/M47L (Fc fusion) |  |  |  |  | IL-2 release, primary T cells; K562/OKT3/PD-L1; 1 nM (PD-L1 (human)): 268; IL-2 release, primary T cells; K562/OKT3/PD-L1; 10 nM (PD-L1 (human)): 2700; IL-2 release, primary T cells; K562/OKT3/PD-L1; 100 nM (PD-L1 (human)): 7530; IL-2-luciferase RLU, Jurkat + CHO/OKT3/PD-L1 aAPC, 0.6 nM (CD28 (human)): 1040 RLU; IL-2-luciferase RLU, Jurkat + CHO/OKT3/PD-L1 aAPC, 1.9 nM (CD28 (human)): 1730 RLU; IL-2-luciferase RLU, Jurkat + CHO/OKT3/PD-L1 aAPC, 5.6 nM (CD28 (human)): 2580 RLU; IL-2-luciferase RLU, Jurkat + CHO/OKT3/PD-L1 aAPC, 16.7 nM (CD28 (human)): 3070 RLU; IL-2-luciferase RLU, Jurkat + CHO/OKT3 aAPC (no PD-L1), 5.6 nM (CD28 (human)): 633 RLU; IL-2-luciferase RLU, Jurkat + CHO/OKT3 aAPC (no PD-L1), 16.7 nM (CD28 (human)): 731 RLU; IL-2-luciferase RLU, Jurkat + CHO/OKT3 aAPC (no PD-L1), 50 nM (CD28 (human)): 817 RLU
15 | variant CD80 IgV-Fc (inert) E35G/K54E/A71D/L72P (Fc fusion) |  |  |  |  | IL-2 release, primary T cells; K562/OKT3/PD-L1; 100 nM (PD-L1 (human)): 59; IL-2-luciferase RLU, Jurkat + CHO/OKT3/PD-L1 aAPC, 0.6 nM (CD28 (human)): 529 RLU; IL-2-luciferase RLU, Jurkat + CHO/OKT3/PD-L1 aAPC, 1.9 nM (CD28 (human)): 489 RLU; IL-2-luciferase RLU, Jurkat + CHO/OKT3/PD-L1 aAPC, 5.6 nM (CD28 (human)): 554 RLU; IL-2-luciferase RLU, Jurkat + CHO/OKT3/PD-L1 aAPC, 16.7 nM (CD28 (human)): 504 RLU; IL-2-luciferase RLU, Jurkat + CHO/OKT3/PD-L1 aAPC, 50 nM (CD28 (human)): 476 RLU; IL-2-luciferase RLU, Jurkat + CHO/OKT3 aAPC (no PD-L1), 5.6 nM (CD28 (human)): 417 RLU; IL-2-luciferase RLU, Jurkat + CHO/OKT3 aAPC (no PD-L1), 16.7 nM (CD28 (human)): 475 RLU; IL-2-luciferase RLU, Jurkat + CHO/OKT3 aAPC (no PD-L1), 50 nM (CD28 (human)): 440 RLU

The next lines start with results.

Row | Fold Increase over WT CD80-IgV-Fc (RLU, Jurkat/IL2 + K562/OKT3/PD-L1 reporter assay, 50 nM) [1] | Relative Luciferase Units (RLU), Jurkat/IL2 + K562/OKT3/PD-L1 reporter assay, CD80-Fc Conc 50 nM [1] | Fold Increase over WT CD80-IgV-Fc (RLU, Jurkat/IL2 + K562/OKT3/PD-L1 reporter assay, 50 nM) [2] | Relative Luciferase Units (RLU), Jurkat/IL2 + K562/OKT3/PD-L1 reporter assay, CD80-Fc Conc 50 nM [2] | Substance | further results
16 | 5.1 fold | 1040 RLU | 5.1 fold | 1040 RLU | CD80 E35D/D46E/M47V/A71D/D90G IgV-Fc (inert) (Fc fusion) | 
17 | 7.1 fold | 1460 RLU | 7.1 fold | 1460 RLU | CD80 E35D/D46V/M47L/V68M/L85Q/E88D IgV-Fc (inert) (Fc fusion) | 
18 | 4.1 fold | 851 RLU | 4.1 fold | 851 RLU | CD80 E35D/K37E/M47V/N48D/L85Q/D90N IgV-Fc (inert) (Fc fusion) | 
19 | 3.3 fold | 680 RLU | 3.3 fold | 680 RLU | CD80 E35D/M38T/M43V/M47V/N48R/L85Q IgV-Fc (inert) (Fc fusion) | 
20 | 6.2 fold | 1270 RLU | 6.2 fold | 1270 RLU | CD80 E35D/T41S/M43I/M47V/A71G IgV-Fc (inert) (Fc fusion) | 
21 | 5 fold | 1020 RLU | 5 fold | 1020 RLU | CD80 E35D/T41S/M47V/A71G/K89N IgV-Fc (inert) (Fc fusion) | 
22 | 2.9 fold | 594 RLU | 2.9 fold | 594 RLU | CD80 E35D/T41S/M47V/L97Q IgV-Fc (inert) (Fc fusion) | 
23 | 8.4 fold | 1720 RLU | 8.4 fold | 1720 RLU | CD80 E35D/Y53H/A71G/D90G/L97R IgV-Fc (inert) (Fc fusion) | 
24 | 6.4 fold | 1310 RLU | 6.4 fold | 1310 RLU | CD80 Q27H/E35D/M47I/L85Q/D90G IgV-Fc (inert) (Fc fusion) | 
